From the DeepSol protein solubility set

test: soluble on expression in E. coli; label from the status in PepcDB or PDB records

Sequence | soluble on expression in E. coli
MSLVRSKAPLRLGLAGGGSDVSPYSDIYGGLILNATINLYAYCTIEETNSGRIEINAYDAQCCKSYLSMSQLEIDGEASLIKGVYNRIIRDYRLEPKSFKITTYNDAPAGSGLGTSSTMVVCILKAFIEWLSLPLGDYETSRLAYEIERKDLGLSGGKQDQYAAAFGGFNYMEFLQNDLVIVNPLKMKRWIVDELESSMVLYFTGRSRSSAAIINEQKKNTSEGNQTAIEAMHKIKQSAIDTKLALLKGDVGEFARILGEGWENKKKMAGAITNPMIQEAFDVATGAGAMAGKVSGAGGGGFIMFVVEPTRKEEVVRALNNLNGFVMPFQFIDDGAHGWKIYSTDKVQKEGHHHHHH | soluble
MSLVTIYDVAAKAGVSIKTVSRVMNNEPNVRPVMRERVLAAAGELGYSPNLSARSLAGSRSFVIAVFVDAALTIDHWQSERGADYLSRIQLGATLVCRDAGYHLLIELIDHEGPQVRQEVAALLAALKPDGVILTPPSSDNAVVLELLDRAGTPYVRVGPERAEGLGPRVHMDDVAAAREMTDHLIGLGHKRIGFIVGEPRYGASQARRDGYLEAMRAKGLSVPEFWVRQGDFTFQSGLEQAKALLALPERPTAIFASNDDMALGAIAAIADAGLMTPGDVSVAGFDDSPSSRFSRPQLTTVRQPVAEMSSVAAKLLIERSRGGASTERPVDELLPFTLIHRASTEGHHHHHH | not soluble
MSLVTKGKSAQYIKDESAFEDFLIGSGLEEASLSLSSGEVRTGQDLRAVIDDALAIRTLINGLHTRYSRTVVEQAAIAGALNPDLFNDLGRANAMAETIARRLDLVAEDTERGWQGRTSTSNEGPGGYIMERTVRGVKESATLDMALLGSADARALDRYAARLGEEGHHHHHH | not soluble
MSLVTRSVLKFGGSSVSDFTKIKRIAEMLKERVNQDEQLIVVVSAMGNTTDQLMTNVSTLTKAPKQQELALLLTTGEQQTVSYLSMVLNDIGVNAKAMTGYQAGIKTIGHHLKSKIAQINPQTFEQAFQENDILVVAGFQGINEHQELTTLGRGGSDTTAVALAVSNQIPCEIYTDVDGVYATDPRLLPKAKRLDIVSYEEMMEMSALGAGVLETRSVELAKNYNIPLYLGKTLSNVKGTWIMSNEEILEKKAVTGVALDKHMMHVTISYPLPDNQLLTQLFTELEEGAVNVDMISQIVNLDGLQLSFTIKDSDFHQISMILETLKNQYEALAYKINEHYVKISLIGSGMRDMSGVASKAFLTLIENNIPFYQTTTSEISISYVIDDFNGQQAVEKLYDAFNIEGHHHHHH | soluble
MSLYKAYLIDLDGTMYRGAEVIPEAIIFIENLKRAGLPYLFVTNNSTKTPGQVAEHLTDMGIQAVSDDVFTTSQATVQFMMEQKREKTVYVIGERGIKQELTDNGFEITSSNPAFVVVGLDREVDYEKFSKAALAVRGGAMFISTNGDAAIPTERGLLPGNGSITSVVSVATETAPIFIGKPESIIMEQALAKLGVHKDEAIMVGDNYETDIMAGINYGMDTLIVHTGFTSKEALLTKEIQPTYAVTKLTDWEFNEGHHHHHH | not soluble
MSMAMSQSNRELVVDFLSYKLSQKGYSWSQFSDVEENRTEAPEGTESEAVKQALREAGDEFELRYRRAFSDLTSQLHITPGTAYQSFEQVVNELFRDGVNWGRIVAFFSFGGALCVESVDKEMQVLVSRIAAWMATYLNDHLEPWIQENGGWDTFVELYGNNAAAESRKGQERLEHHHHHH | soluble
MSNARIGIDMSKIYAPKSIDLSSFQLPDEKLQTKYGLPHKVEFCKSCVISNQRPNSAVEYEHKKESKKHTIHFDDEGICDACRVAERKKSTINWEERDRQLRELCDRFRSKDGSYDCVVPGSGGKDSFYAAHILKYKYGMNPLTVTWAPHMYTPWGWRNFQSWIHAGFDNHLFTPNGRVHRLLTRLAVENLFHPFQPFMIGQKAYAPKMALLHKIKLVVYGENEAEYGNPIGDTESAKRDWKYFTADDKSKIFLGGTSVQELKSDFGLNDNDLDAYLPADPQQIEEQQVEVHYLGYYLKWHPQSCYYYSVEHGGFEASPERTPGTYSKYNSIDDKIDDFHYYTTLTKFGIGRATYDASQEIRSGDITVEEGVALVKRFDQEFPERFAEEIFKYLSINLKEFPIASQMFEQPIMDRAYFMALADTFRSPHLWKKDGEQWKLRHQVTNLEKTKAEYLDLETV | not soluble
MSNDDNVELTDGFHVLIDALKMNDIDTMYGVVGIPITNLARMWQDDGQRFYSFRHEQHAGYAASIAGYIEGKPGVCLTVSAPGFLNGVTSLAHATTNCFPMILLSGSSEREIVDLQQGDYEEMDQMNVARPHCKASFRINSIKDIPIGIARAVRTAVSGRPGGVYVDLPAKLFGQTISVEEANKLLFKPIDPAPAQIPAEDAIARAADLIKNAKRPVIMLGKGAAYAQCDDEIRALVEETGIPFLPMGMAKGLLPDNHPQSAAATRAFALAQCDVCVLIGARLNWLMQHGKGKTWGDELKKYVQIDIQANEMDSNQPIAAPVVGDIKSAVSLLRKALKGAPKADAEWTGALKAKVDGNKAKLAGKMTAETPSGMMNYSNSLGVVRDFMLANPDISLVNEGANALDNTRMIVDMLKPRKRLDSGTWGVMGIGMGYCVAAAAVTGKPVIAVEGDSAFGFSGMELETICRYNLPVTVIIMNNGGIYKGNEADPQPGVISCTRLTRGRYDMMMEAFGGKGYVANTPAELKAALEEAVASGKPCLINAMIDPDAGVESGRIKSLNVVSKVGKK | soluble
MSNEDSLPPFTLFGLDDVENYGLVTEADNSLPLDIHNQVFQLVEKGNQSFKESRFEEAISSYSKANSIKPLDPIVLGNRSAAYIRFGQYLKQRSASISEYKPLNGFDMSMLGELALKDADKLMSLQSSLVKSYITKACALMLLERYEVARDTILSGLQIDPFSGPLRSNLQELEKVMPNSMRKTHGMAERSDDFDCTVCLKLLYEPATTPCGHTFCRSCLFQSMDRGNKCPLCRTVIFMTPRTCAVSVTLNNIIEKNFPEEYAERKSEQDTLVHLGNESMPLFVMDVIIPCQKLSLHIFEPRYRLMVRRIMEGNHRMGMVALDSATGSPVDVACEVEITECDPLPDGRFVLELESHRRCRIVKAWDQDGYRVAEVEWVKDIPPQSEQGKADLRELTTSAASFARSWLDRAKEAARQGDRRRLEILLNVESMIPTPQDPERFSFWLATLTDRRPSERLELLRLQDTGEVLDYRLVQIARQISLFHQSLSFDC | not soluble
MSNKLESYRSEIVSLNHQILDLLSKRGELAQKIGEEKLKQGTRIYDPQREKEMLNDLIDSNKGPFNDNTIKQLFKEIFKASTDLQKSENEKHLYVSRKLKPEDTIVTFDNGGIIGDGNKSFVFGPCSVESFEQVEAVAKNLHAKGEKFIRGGAFKPRTSPYDFQGLGVEGLKILKQIKDKYDLNVVSEIVNPNDFEVADEYLDVFQIGARNMQNFELLKEAGRTKKPILLKRGLSATIEEFVYAAEYIASQGNQNIILCERGIRTYEKATRNTLDISAVPILKQGTHLPVMVDVTHSTGRKDIMLPTAKAALAVGADGVMAEVHPDPSVALSDAGQQMDLDEFQAFYDELKPLADLYNAKKLK | not soluble
MSNLEIKQGENKFYIGDDENHALAEITYRFVDNNEINIDHTGVSDELGGQGVGKKLVKAVVEHARENHLKIIASCSFAKHMLEKEDSYQDVYLG | soluble
MSNLVLSLDISTSGTGWALFKGSDLIQSGVLKHKSKSYFERGRYMASQLRLIQSRALKKYDCYFSTIAVEKNSVMGPNQQSMLKIGIVTGIILGRLIADNVVFINVSTWRKYWKFSYKDRSKKSMKLQSKIKVEQEFNKSVKDDEADAILIGSYYVNQGYLDELETHDYY | soluble
MSNMEPPPPMFPRSRIYHSYYSEEKTFSAPSANSQQGTQLPSKVYNKGLKDNDIEGLLSSLSIDELEDLNNDFDPDNSMLPPSQRCRDQTDKEPTGPYKRDNLLKFLEDKAKTEKDWEDVCPYTPGQKRGKVYDSDSGRNSEEPENGKMEMPIEIDLDDDEEELECALVTAPEKDLVDLAGILGMHNVLNQPQYYNALKGKTQDESTGTTFNGIMQSYVPRIVPDEPDNDTDVESCINRLREDDTDLKEVNINNMKRVSKERIRSLIEAACNSKHIEKFSLANTAISDSEARGLIELIETSPSLRVLNVESNFLTPELLARLLRSTLVTQSIVEFKADNQRQSVLGNQVEMDMMMAIEENESLLRVGISFASMEARHRVSEALERNYERVRLRRLGKDPNV | soluble
MSNNNSGSSNQLLVRGAEQALDQMKYEIAQEFGVQLGADATARANGSVGGEITKRLVSLAEQQLGGGVTR | soluble
MSNRNLRSSTNSEFSEGQHQTPSSDSSGHGEDQPQASPGPNKKSHTPKKNISKGAVLHEKPMTVMVLTATEPFNYKEGKENMFHATVATESKYYRVKVFNMDLKEKFTENQFITISKYFNSSGILEINETATVSEAAPNQMFEVPKNIIRSAKETLKISKIKELDSGTLIYGVFAVEKKKVNDKSITFKIKDNEDNIKVVWDKEQHNINYEKGDKLQLFSFHLRKGNGKPILHSGNHSFIKGEKLLKESFEGDGYHKGPKQVVALKATKLFTYDSIKSKKMFHATVATDTEFFRVMVFEENLEKKFIPGNTIALSDYFGMYGSLAIHEYSSVSEVKSQNKEDSSSSDERPIEHLKICDLHLQTEERLVDGEFKVYRKSSGNNCICYGIWDDTGAMKVVVSGQLTSVNCEIGNTIRLVCFELTSNADEWFLRATRYSYMEVIMPEK | not soluble
MSNVMDLNLIQTFLVVAEFQSYTKAAEQLGLTQPAVSAAIKRLEQVVDKQLFVKKGRGITLTSAAYQLLPQFEQAVSIIDNAIMEKKHFEVCCSEILLHIMSPIKNAIFYESPPEKYILFELLRQQKVDLVIDTVVTKDAAFVMEEAYEEKAVIICREQHPRIQGTLSKEQFYDETHCLFSGKWNNMSGFEQLAQETILER | not soluble
MSPEGAERYDRNCDHQFQKGHVLIEMMGIKKGDFVLDVGCGTGRQALNVAGIIGPAGKLTGIDPSSYRIELARKKFEGDSSGNVRFLVRQAENLQDIPDNSINHAYFCSSFHWVDDKKTALNEIFRVLRPGGKVGMTTLDRNSPNTMKALIDPILAKFGIERRHEWHRGMKKVTAPELHDLLSGAGFTSISIEPRAVPRKYNSPEEFLQHPEEKDSSRGILRDISNETLEKLRQEITEEFRKAQTPEDIGFGNITLFAIATKAQEGLEHHHHHH | not soluble
MSPVVSEASPERWDDETDVLVIGSGAGGLSAALFAAQAGLRVLICEKLAYVGGTTATSGGGIWVPGTKAGLAAGDTLEAARTYLKALLGDFYQEEVIDTYLATGGKVIDFLNENTEVKFDLSSWPDYRSSLPGGATRGRSLFPQPFDGKKLGRNFSLLHPPLHRLMVLGGLMLGPEEVHDFLRPFSSPRALMRVLRKLLRYGMDRIRYARGTDLRSGNALAARLLYSVDKLGCRILTQADLESLAIDHDRVIGATVVVGGVPKRIRASKAVLLATGGFAHNQEMLRRYGPATPHRFSLCNPACTGAGIQAALDAGASVDRELSSVGFWTPASASREKNGADTPVIYSYLDRGRPGVIAVNEQGERFVNEANSYHDIVTAIFANGGADGKPFYFITDREFVRRHGLGLIRPWPWNRSLRPWIRRGYITVASTLDKLGPKIGIDPGALAAAVQRHNQSARTGQDPDFHKGASAYNRMFGHNMIWPNPNLAPIETPPFVALRIHPATIGTAMGLKTSASGQALNAAGQPISGLYACGNDQASPFRGFYPGGGSTLGPAIVGAYLAVQSLSKQLEHHHHHH | not soluble
MSQAAFVNPSILTWSRERAGLSAAQVARKLPVKPERVEEWESGEARPTFLQAQKWASVAHVPFGFLFLLQPPVEQLPLPDLRTVGNSAPLRPSLELLDTVKDAIRKQDWYLEYLHVQERQPLPFVGRFDSRTPVKTVVSDIRQTLGVDPEKSRLDYDKYSRALIDAAEVAGVLVMRSGIALGNTHRKLEVSEFRGFAISNPLAPVVFINSSDAPTARLFTLMHELAHIWIGSSGVSDAGTANGREEERFCNAVAGEFLVPEALFRTVWSASIEWESNLATLATRFHVSKLVIGRRAMDLGYVTQEQYGAYYQKILKAFRDEKGGAEDYYRNATAKNSTRLSKAVLTETLSGRMLLREAGNLLGVQPAKLRTLAAEHL | not soluble
